This note sets out measurements from US20060019320A1, “Wnt mediated erbb signalling, compositions and uses related thereto” (priority 2002, published 2006).

One assay addresses T1, ErbB1 (Mus musculus, UniProt Q01279).
T1 construct: ErbB1 was immunoprecipitated from 500 micrograms WCL and immunoblotted with a phosphotyrosine specific antibody; endogenous in cells; host or cells: HC11 mammary cells (C-HC11, Wnt1-HC11, Wnt5a-HC11)
Description: ErbB1 immunoprecipitation and phosphotyrosine immunoblot in HC11 cells. Conditions: HC11 cells, 100 ng/ml EGF for 10 minutes. It is filed as cell-based. As for the experimental part: ErbB1 is transactivated by many classes of membrane proteins (Carpenter, 1999; Gschwind et al., 2001). However, Wnt/VFz-mediated activation of ErbB1 has not been reported previously. Since ErbB1 tyrosine phosphorylation is an essential step in ErbB1 activation, we examined whether Wnt can activate ErbB1, by immunoprecipitating the receptor form Wnt/HC11 cells and performing a Westem analysis with phosphotyrosine specific antiserum. For these experiments HC11 cells were grown over night in medium without EGF. As a control for ErbB1 activation, C-HC 11 and Wnt-HC11 cells were treated for 10 minutes with 100 ng/ml EGF. An ErbB1 selective kinase inhibitor PKI166 (Traxler et al., 2001) was also used in some experiments. For this, the cells were pretreated 1 hr with 5 microM PKI 166, or left untreated, before preparing WCLs, essentially as described in Example 1.
ErbB1 was immunoprecipitated from 500 micrograms WCL and immunoblotted with a phosphotyrosine specific antibody (anti-phosphotyrosine AG10, Upstate Biotechnology) essentially as described previously (Lane et al., 2000). Membranes were stripped by placing them in 2% SDS, 62.5 mM Tris pH 6.8, 100 mM beta-mercaptoethanol at 60° C. for 30 min. Stripped membranes were reprobed for ErbB1 using a commercially available antibody (antibody 1005,Santa Cruz Biotechnology). […]

The test system of another assay is ERK1/2. The assay is described as follows: phospho-ERK1/2 immunoblot (MAPK activity) in HC11 cells. It is filed as cell-based, mouse. An excerpt:
The MAPK and PI3K pathways are major signaling cascades downstream of activated ErbB receptors (Olayioye et al., 2000). Antisera specific for the active, phosphorylated forms of ERK1/2 and PKB, the major kinases on the respective pathways, were used to probe for their activity. 50 micrograms of WCL were immunoblotted essentially as described above with the exception that a phospho-ERK1/2 antibody (commercially available, New England Biolabs) or a phosphoPKB antibody was used. Membranes were stripped and reprobed for ERK1/2 (anti-p44/42 ERK, New England Biolabs).
Briefly, conditioned media (CM) from Wnt-HC11 cells prepared as described in Example 1 was tested for its effect on ErbB1 and MAPK activity, essentially as described above. Treatment of C-HC11 cells for 10 min with Wnt1- and Wnt5a-CM stimulated phospho-ERK1/2 levels 5-6-fold, whereas CM from C-HC11 cells had no effect.
To rule out the potential involvement of ErbB1 ligands in mediating the effects of Wnt-containing CM, we used secreted Frizzled-related protein-1 (sFRP-1), which binds Wnt preventing it from binding Fz (Uren et al., 2000). […]
The metalloproteinase inhibitors were next tested in the presence of Wnt-containing CM. […] Phospho-ERK1/2 levels were determined as above. […]
Background: In western blotting, separated proteins are transferred to a membrane and probed.

A further assay concerns cyclin D1. The assay is described as follows: Cyclin D1 immunoblot in HC11 cells. Conditions: control (C-HC11) cells treated 6 hr. It is filed as cell-based, mouse. As for the experimental part:
Briefly, WCL was prepared from HC11, Wnt1- and Wnt5a-expressing HC11 cells and 50 μg immunoblotted essentially as described above using commercially available antibodies against cyclin D1 (NovaCastra) or cyclin D2 (SantaCruz). Both Wnt1- and Wnt5a-HC11 cells express higher levels of cyclin D1, in comparison to HC11 cells. In addition, Wnt1-HC11 cells but not C- or Wnt5a-HC11 cells express cyclin D2.
C-HC11 cells were also treated 6 hrs with CM from Wnt-HC11 cells. WCL were prepared and 50 μg was immunoblotted for Cyclin D1 or Cyclin D2. Similar to the results with the Wnt-HC11 cell lines, both Wnts (CM) stimulated Cyclin D1 expression, while only Wnt1 enhanced cyclin D2 levels.
To assess the contribution of Wnt-transactivated ErbB1 on cyclin D1 and D2 expression, C- and Wnt-HC11 cells were treated 6 hr with PKI166 or CGS27023A or EGF. […] In contrast, the ErbB1 inhibitor had no effect on cyclin D2 levels. […] Thus, cyclin D1 and cyclin D2 are differentially controlled. Both Wnt1 and Wnt5a transactivate ErbB1, which results in increased expression of cyclin D1; in contrast cyclinD2 is only elevated in Wnt1 expressing cells and this is independent of ErbB1 activity.

B1: EGF: an ErbB1 activator, used as control for ErbB1 activation (protein, UniProt P01133 23-1207, looked up)
Pro-epidermal growth factor: PQHWSCPEGTLAGNGNSTCVGPAPFLIFSHGNSIFRIDTEGTNYEQLVVDAGVSVIMDFHYNEKRIYWVDLERQLLQRVFLNGSRQERVCNIEKNVSGMAINWINEEVIWSNQQEGIITVTDMKGNNSHILLSALKYPANVAVDPVERFIFWSSEVAGSLYRADLDGVGVKALLETSEKITAVSLDVLDKRLFWIQYNREGSNSLICSCDYDGGSVHISKHPTQHNLFAMSLFGDRIFYSTWKMKTIWIANKHTGKDMVRINLHSSFVPLGELKVVHPLAQPKAEDDTWEPEQKLCKLRKGNCSSTVCGQDLQSHLCMCAEGYALSRDRKYCEDVNECAFWNHGCTLGCKNTPGSYYCTCPVGFVLLPDGKRCHQLVSCPRNVSECSHDCVLTSEGPLCFCPEGSVLERDGKTCSGCSSPDNGGCSQLCVPLSPVSWECDCFPGYDLQLDEKSCAASGPQPFLLFANSQDIRHMHFDGTDYGTLLSQQMGMVYALDHDPVENKIYFAHTALKWIERANMDGSQRERLIEEGVDVPEGLAVDWIGRRFYWTDRGKSLIGRSDLNGKRSKIITKENISQPRGIAVHPMAKRLFWTDTGINPRIESSSLQGLGRLVIASSDLIWPSGITIDFLTDKLYWCDAKQSVIEMANLDGSKRRRLTQNDVGHPFAVAVFEDYVWFSDWAMPSVMRVNKRTGKDRVRLQGSMLKPSSLVVVHPLAKPGADPCLYQNGGCEHICKKRLGTAWCSCREGFMKASDGKTCLALDGHQLLAGGEVDLKNQVTPLDILSKTRVSEDNITESQHMLVAEIMVSDQDDCAPVGCSMYARCISEGEDATCQCLKGFAGDGKLCSDIDECEMGVPVCPPASSKCINTEGGYVCRCSEGYQGDGIHCLDIDECQLGEHSCGENASCTNTEGGYTCMCAGRLSEPGLICPDSTPPPHLREDDHHYSVRNSDSECPLSHDGYCLHDGVCMYIEALDKYACNCVVGYIGERCQYRDLKWWELRHAGHGQQQKVIVVAVCVVVLVMLLLLSLWGAHYYRTQKLLSKNPKNPYEESSRDVRSRRPADTEDGMSSCPQPWFVVIKEHQDLKNGGQPVAGEDGQAADGSMQPTSWRQEPQLCGMGTEQGCWIPVSSDKGSCPQVMERSFHMPSYGTQTLEGGVEKPHSLLSANPLWQQRALDPPHQMELTQ
modifications: Pro-epidermal growth factor
B1: the ErbB1 phosphorylation entry with ErbB1 is “strong increase”. The ERK1/2 phosphorylation entry in the assay with ERK1/2 (C-HC11 cells, EGF 10 minutes in the presence of sFRP1) is “able to induce”. Besides, the “cyclin D1 expression” value in the assay on cyclin D1 is reported as “stimulate”.

B2: sFRP1: secreted Frizzled-related protein-1, binds Wnt preventing it from binding Fz; used as CM from sFRP1-producing HEK293 cells (protein, UniProt Q8N474 32-314, looked up)
Secreted frizzled-related …: SEYDYVSFQSDIGPYQSGRFYTKPPQCVDIPADLRLCHNVGYKKMVLPNLLEHETMAEVKQQASSWVPLLNKNCHAGTQVFLCSLFAPVCLDRPIYPCRWLCEAVRDSCEPVMQFFGFYWPEMLKCDKFPEGDVCIAMTPPNATEASKPQGTTVCPPCDNELKSEAIIEHLCASEFALRMKIKEVKKENGDKKIVPKKKKPLKLGPIKKKDLKKLVLYLKNGADCPCHQLDNLSHHFLIMGRKVKSQYLLTAIHKWDKKNKEFKNFMKKMKNHECPTFQSVFK
In the case of B2, the “Wnt1 and Wnt5a CM-induced increase of phospho-ERK1/2 levels” value with ERK1/2 (C-HC11, CM from sFRP1-producing 293 cells premixed 1:1 with Wnt-containing CM, 10 min) was “prevented”.
